Measurements as given in a protein production outcome set (Wang et al. 2014).

Test: label from the status in PepcDB records

Sequence	protein production
MPDTKIVDANNKFGFKLFSEIAKQDGNAKNISVSPTSVAIALAMTYNGASGSTQKAMAKTLELQGISLPELNSGYASLNKLLQNPGENVQLTIANSLWVNQDVSLRPDFVQTTRDFYQAKVTNLDFQNVTAVNTINSWVQENTKGKIDKIVDNIEPNQALFLINAIYFNGKWSNAFDKSQTTPQTFYTASGQQKQHPMMSQTGEYRYYETPQFQSVSLPYGQDGKVSLYIFLPTKNSNLKAFSQNLNAENWEKWMPQFRNREGSIRLPRFQTDYDITLNDALKSLGMAEAFSNKANFSGIGDNLTISQVRHKTVIEVNEEGTEASAATSVGMVATSLREPQQPFKMIVDRPFFYAIRDNQSKNILFMGAVVEPN	failed
MIIETERLLLRPFNEQDVDALYLMNSNPAMLKYIPTAPFTDREQARELFHNVILQDYQQRGFGRWAVEHKADNRVIGFCGPKFIPEFNEVEIGYRYFPEYWGKGIGTEAAEAALSVFPQFGIKQTIALILEGNLGSETVAKRVGMYWREHSEFMGHK	failed
LRESKRFIEQVISHSPQLLYIFEPTTGSNIYLNGQSVDILGYTPEEIKARGVKFFLDVLHPDDLYLLERNLNYWQNAADGEVLTTEWRMKHKNGSWRWLRSRDVVFARDENHFPCKVLGTTQDITDSKLAELE	failed
MSKATTPGDQPKVSEMDFYQLLGVEKMASEAEIKSAYRKLALKYHPDRNPNDAHAQEEFKKVSIAYSVLSDPNKRRQYDVSGPSENQLDFEGFDVSEMGGVGRVFGALFSKLGVPIPTQIVPKVLAQARHICMGQECDVQARQLPPGETVTSSVSKQHAHFYEINIQEEHRKNGVAIICKSSSSKFKLVLFDKEGGVRMIQESGKRGKAGTQADMFFVPYNVANIQEFNAMKYHLEDKETPLAFHYLDSFEMQTATLLETRKHYIAVYGDNWISDVKYSITFLPVEPSAVEQLNEIQDTEKSISIIKKEMLDFQREFTEAKRKYDEAVAKLKVQDDTILKALAHREELYNEVLQKSQEPYNKKVSPSKSSGGLLGWFK	not failed
MTTQSQFLVNLSYGGLASQSNLRANNRVSPSSCQITRTNRSWALPVSFKVEKFQLQRGRRRRGSPCFGESEGLVKNGIGDADGIIIVDHGSRRRESNLMLEEFVKMFKEKTGYPIVEPAHMELAEPSIKDAFSLCVQQGAKRVVVSPFFLFPGRHWHTDIPSLTADAAKEFSGISYLITAPLGPHNLLLDVVNDRIQHCLSHVEGDADECLVCAGTNKCKLYNSS	failed
FGAEFSSEACRELGFSSNLLCSSCDLLGQFNLLQLDPDCRGCCQEEAQFETKKLYAGAILEVCGUKLGRFPQVQAFVRSDKPKLFRGLQIKYVRGSDPVLKLLDDNGNIAEELSILKWNTDSVEEFLSEKLERI	failed
MITFIGHVSKDVNVVDGKREIAYGGGVVMGAITSSLLGVKTKVITKCTREDVSKFSFLRDNGVEVVFLKSPRTTSIENRYGSDPDTRESFLISAADPFTESDLAFIEGEAVHINPLWYGEFPEDLIPVLRRKVMFLSADAQGFVRVPENEKLVYRDWEMKEKYLKYLDLFKVDSREAETLTGTNDLRESCRIIRSFGAKIILATHASGVIVFDGNFYEASFRSWSLEGRTGRGDTCTAAFLVGFVFKKMSIEKATKFAAAVTSVKMRHPGPLRREDLEAISGDQYF	not failed
MKVLILGGGYTGQRLAQLLAAQSIPVLATTRSGQWPLDEPCVTFDAGSTPLLLPDPAALAGVTHVLSTIPPLGDGGDPVLSTLLPTLQYLSLQWCGYLSTTGVYGDTQGAWVDEDSPLQSTNRRSQQRIAIEAQWLASGLPAHIFRLPGIYGPGRSSFDRLRRGDNQRLLKPGHVFCRIHVDDIAAALWASLQQPNPGRIYNVSDDFPCEPALLIEAAAQLMGVELPPPLPVDAVELSPMAASFWSECRRVRNDRLKQELGVQLRYPSYREGLAAIWAAELEHHHHHH	failed
METTDHSTPQCGSASAGGQKTVGKDDYLLIEAVNKGDADRVQQLLEQGADANVCEESGGWTPLHNAVQSGRVDIVNLLLRYGADPHRRKKNGATPFIVAGICGDVSLLQIFLSRGANINERDMYGFTAFMEAAEYGNVEALKFLFAEGADVNLRRETTEDRRRLKQGGATALMSAAENGHPEVVRILLDEMKAEADARDNMGRNALIRSLLNRDCENVEIHVEEITSVLIQYGADINVRGEGEKTPLISAVKRKHTGLVQMLLSQEGIKVNDRDSEGKTALQIAVELKLKEIVRLLLEKGADTKCGDLVWIAKRNYDHGLVKLLLSYEANHDTNPPAKDWLPHSARWGEALERLHSVSRPMTGKLKIFMNDDYKIASTSEGGIYLGIYDNREVAVKVFCENSSRGRKEVSCLRDCGDHSNLLTFYGSEEHKGSLYVCVSLCESTLEKFLNVPREEPMEKGEDKFALSVLLSIFKGVQKLHMHGYSHQNLQPPNILIDSEKAVRLADFDESIQWMRESQTVQRDLEDLGRLVLYVVNKGEIPFETLKGQNDEELLTIAPNEETKDLVHCLFSPGENVKNCLMDLLGHPFFWTWENRYRTLRDVGNESDIKVRNNKSKLLKLLQPQTHAPSRSFDRWTSKIDKRVMSDMNGFYKSRKGYRDTVGDLLKFIRNIGEHINEEKNRQMKEILGDPSRYFQETFPDLVIYIYKKLKETEFRKHFPQPPPSLSVPEAAGPGGVQS	failed
SFQTVPSTAETSAVLLQDSGWDALAQRLALIETAEHSIDIQYYIWNSDASGHYLASRLLAAADRGVKVRVMLDDINLNEREDLLVALNAHPHVEIRVFNPIPTRRGVTKWVNFLGDFSRLNRRMHNKSFTVDGVFSVVGGRNIGDEYFDLSNEINFRDRDVLVRGSVVYDIQTSFIEYWDSRWSYPVDLLAKEASQEPLLQKQPVLDEIDAPVYKNYPA	failed
MGQLPPRARAFFAAQRPLRVLMPGCGSAADLPPLLAMGHDVLAVDFSEAAIELAARQWPEAAGRLLLADFFQLQMPAFDCLFERAFLCALPVGMRSQYAERVAALIAPGGALAGVFFVADTERGPPFGMQAEALRELLSPWFELEEDLALDESVAVFRNRERWMVWRRRGLEHHHHHH	failed
AALVRQHLDALPAASVPDLPAMARLLCTSVRTLKRRLQEEGTCYRQVLAGHRGARALELLGNPRLSLSQVAERLGFSDLSSFSQSFKRWFGVAPSVYRQERCG	failed
MLPIWFLIVIILKSVEFVITSFFLRDISKEMIFFSDLLGRIIVIIFYVLPIATYISVMFSQFLYLFIIHIFLYIICFMAFVSSALRIKRCIH	failed
MHCLIHVPELMNVKGIGGFENLCDLELLTSYLEEVDLIMTNHSTKRSSRSFKISRDHSTTRSSRAHHHFTSPLDPERSSNSITPLDCILDDKLQSLLHSALNQTLEHKEEKKIPAIHSSSHSTTLVEYSS	failed
MAAAPASDVCGGGSKKNCSGRRMSDAAPPVSSPPPRQKGLLGVVERLGNLLPEPVMIFVWLILGLMVLSAIGQALGWSASITYAGDEAPQFGELENGVLTYAASSLFSEANLARLFTEMPKTLTSFAPLGLVLVVILGAAVAERSGLFSALIRASLREAPKRILTPLVVIIGMVSHHASDAAYVVFIPLAGLLYAAVGRHPLAGIAAGFAAVSGGFAGNLTPGQFDVVLFGFTQEAARIIDPTWTMNPLGNWWYILAIVVVFTPIAWFLTDKVVEPRLGPWGGQADDALKAELAKSAVTADEKRGLKFAGLAALAIVALFAALSLIPGFTPLIDETKTGPAQLTPFYGALIAGFMMLFLAGGVAYGVGVGTVKTEGDVVNMMADGVRSVAPYIVFAFFAAHFVAMFNWSRLGPIAAIHGAETLKAMNLPAPLLLVSVLGFSSVLDLFIGSASAKWSALAPVVVPMFMLLGISPEMTTAAYRMGDSFTNLMTPLMSYFPLVLAMTRRWDPSMGVGSLLALMLPYALAFMVAGVAMTLAWVAFDWPLGPAAQVHYTPPGGLLK	failed
MLDSHLHPRLKPLLNAVAGALDRPGISPDGLTLVGFAIGVLALPFLALGWYGAALAAILLNRLLDGLDGALARRRGLTDAGGFLDIALDFLFYALVPFGFILADPLNNALAGGWLLFAFIGTGSSFLAFAALAARHQIANPGYAHKSLYYLGGLTEGTETILLFVLGCLFPAHFAWLAWLFGALCWLTTATRICSGYQTLKRVTTTA	failed
MQEKYNFGKVSSQHKNYSKIETMLRPKGFDKLDHYFRTELDIDLTDETIELLLNSVKAAFGKLFYGAEQRARWNGRDFIALADLNITKALEEHIKNFQKIEQDMGVDELLEYIAFIPPVEMNVGEDLKSEYRNIMGGLLLMHADVIKKATGERKPSREAMEFVAQIVDKVF	not failed
